Data published in publication PMC5010387.

Molecular target: ClC-ec1 C85A/H234C labelled with Cy5 (WT-Cy5) (Escherichia coli) (UniProt P37019)
Assay: single-molecule photobleaching of subunits captured into liposomes (TIRF); high-density proteoliposomes (χ = 7.5 × 10^-6 subunit/lipid) diluted 10X to 1000X by freeze/thaw fusion with empty 2:1 POPE/POPG vesicles, incubated at room temperature, time course after freeze/thaw

**Q.** “ClC-ec1 C85A/H234C labelled with Cy5 (WT-Cy5) (from UniProt P37019 1-473) (natural protein)” was tested. Which mid-point of the convergence of the 1000X diluted sample to the reconstituted probabilities did it give?
**A.** 13 days
